Results from patent US20210101970A1 (Pfizer, published 2021).

T1: human CXCR5 (human, UniProt P32302 1-372)
T1 sequence: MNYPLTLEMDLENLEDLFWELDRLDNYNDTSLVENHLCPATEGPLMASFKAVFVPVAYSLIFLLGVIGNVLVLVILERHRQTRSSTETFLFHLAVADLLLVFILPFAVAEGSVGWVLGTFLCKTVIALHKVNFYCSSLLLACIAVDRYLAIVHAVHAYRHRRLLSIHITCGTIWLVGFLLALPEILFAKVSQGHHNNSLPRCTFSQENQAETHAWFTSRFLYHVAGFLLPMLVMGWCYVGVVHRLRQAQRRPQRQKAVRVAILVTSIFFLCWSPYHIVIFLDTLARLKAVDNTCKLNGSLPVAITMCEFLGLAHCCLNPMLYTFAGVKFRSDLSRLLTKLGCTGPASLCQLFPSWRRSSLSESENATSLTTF

T2: cynomolgus monkey CXCR5 (cynomolgus monkey, UniProt P32302 1-372 (human entry))
T2 construct: also called cynoCXCR5; NHP CXCR5
T2 chain: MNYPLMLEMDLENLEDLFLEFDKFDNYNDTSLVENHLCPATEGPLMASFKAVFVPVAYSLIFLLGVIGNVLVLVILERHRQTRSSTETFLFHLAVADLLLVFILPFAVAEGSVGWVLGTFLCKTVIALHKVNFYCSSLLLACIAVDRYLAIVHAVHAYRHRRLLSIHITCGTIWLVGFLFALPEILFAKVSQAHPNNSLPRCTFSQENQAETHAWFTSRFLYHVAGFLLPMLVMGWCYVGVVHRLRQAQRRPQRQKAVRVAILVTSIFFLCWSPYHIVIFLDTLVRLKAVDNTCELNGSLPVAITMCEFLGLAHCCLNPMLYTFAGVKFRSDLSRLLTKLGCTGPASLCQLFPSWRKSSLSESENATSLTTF


Key:
[1] = biological target: T1, human CXCR5; experiment: cell-based or functional assay
[2] = biological target: T1, human CXCR5; experiment: flow cytometry, human PBMC B cells
Protocol: (§1) The apparent affinity for cell surface CXCR5 of chimeric and humanized CXCR5 fucosylated and afucosylated antibodies was assessed. More specifically, to determine the apparent affinity of chimeric and humanized CXCR5 antibodies to CXCR5-expressing cells, cell binding experiments were performed on human and cynomolgus monkey peripheral blood mononuclear cells (PBMCs) and human tonsillar mononuclear cells (TMCs). The apparent affinity of CXCR5 mab binding to CXCR5+ cells (B cells, bona fide Tfh cells, and circulating Tfh-like cells) was calculated as the EC50 of equilibrium binding titration curves in which the geometric mean fluorescence intensity (gMFI) of the antigen binding population was quantified by flow cytometry.
(§2) Following isolation, PBMCs were plated at a density of 1.0×10⁵ cells per well and CD4+ TMCs were plated at a density of 2.0×10⁵ cells per well in isolation buffer (PBS containing 1% FBS and 1 mM EDTA) in 96 well U-bottom plates. The plates were then centrifuged at 1500 rpm for 5 minutes at room temperature. PBMCs and CD4+ TMCs were resuspended in Fluorescence-activated cell sorting (FACS) buffer (PBS containing 1% FBS) containing human crystallized fragment Fc block (2 μL per well; Biolegend) and 4-fold serial dilutions of the antibodies (11-point dilution series, beginning at 5000 ng/mL for PBMCs and 312.5 ng/mL for CD4+ TMCs) and incubated on ice for 2 hours. PBMCs and CD4+ TMCs were then washed with FACS buffer 3 times and resuspended in 50-100 μL of FACs buffer containing fluorescent-conjugated antibodies for staining lymphocyte subsets and a fluorescent-conjugated secondary antibody against human Ig to detect CXCR5 monoclonal antibodies (mAbs). After incubation for 30 minutes at 4° C., PBMCs and CD4+ TMCs were washed with FACS buffer 2 times and resuspended in 125 μL of 0.5% paraformaldehyde (PFA) in PBS. Plates were stored at 4° C. until analysis by flow cytometry (BD LSRFortessa™ Cell Analyzer, BD Biosciences, Franklin Lakes, N.J.).
(§3) The cell binding titration curves were generated by plotting the gMFI of the antigen binding population against the log of CXCR5 antibody concentration. EC₅₀ values were determined using GraphPad Prism® (version 6.0, GraphPad Software, Inc, San Diego, Calif.) nonlinear-regression curve fits and a sigmoidal log of agonist dose-response model, according to the following equation

[3] = biological target: T2, cynomolgus monkey CXCR5; experiment: flow cytometry, cynomolgus PBMC B cells
Protocol: as §1, §2, §3

[4] = biological target: T1, human CXCR5; experiment: cell-based or functional assay; remark: listed apart in the source
[5] = biological target: T1, human CXCR5; experiment: flow cytometry on Raji cells, gMFI titration
Protocol: The apparent affinity of antibody binding to Raji cells was calculated as the EC₅₀ of equilibrium binding titration curves in which the geometric mean fluorescence intensity (gMFI) of the antigen binding population was quantified by flow cytometry and the results are shown in Table 2.

[6] = biological target: T1, human CXCR5; experiment: flow cytometry, human tonsil Tfh cells
Protocol: Following centrifugation, red blood cell lysis was performed on the pellet using an ammonium chloride lysis buffer. Platelets were removed using a low speed centrifugation (200×g) for 10 minutes in Phosphate-Buffered Saline (PBS)/2% FBS/2 mM Ethylenediaminetetraacetic acid (EDTA). CD4+ T cells were purified out of the TMC mixture using an EasySep™ Human CD4+ T Cell Enrichment Kit, according to the manufacturer's instructions ([…] Technologies, Vancouver, BC, Canada).
as §2, §3

[7] = biological target: T2, cynomolgus monkey CXCR5; experiment: cell-based or functional assay

Row | Binder | ADCC Activity Average EC50, Human B Cells [1] [pM] | EC50 [2] [pM] | EC50 [3] [pM] | Ca2+ flux IC50 [4] [pM] | EC50 [5] [pM] | ADCC Activity Average EC50, Human Tfh Cells [1] [pM] | EC50 [6] [pM] | ADCC Activity Average EC50, NHP B Cells [7] [pM]
1 | Humanized 41A10 142/147 (antibody, human IgG1, V domains shown, also called h41A10 VH (XC147)/VL (XC142)) VH: EVQLVESGGGLVQPGGSLRLSCAASGFTFRSYGMSWVRQAPGKGLEWVATISSGGTYTFYPDILKGRITISRDNAKNSLYLQMNSLRAEDTAVYYCARRGEDYRGALEHWGQGTLVTVSS VL: DIQMTQSPSSLSASVGDRVTITCSASSSVNYIHWYQQKPGKAPKRLIYETSRLASGVPSRFSGSGSGTDYTLTISSLQPEDFATYYCQQWSSNPLTFGQGTKVEIK | 1240 | 153 | 2050 | – | – | – | – | –
2 | mouse 11G2 (antibody, V domains shown, mouse hybridoma mAb; also called 11G2 (hybridoma)) VH: EVKLVESGGGLVQPGGSLRLSCATSGFTFTDFYMSWVRQPPGRALEWLGFIRNKANGYTTEYSASVKGRFTISRDNSQSILYLQMNTLRAGDSATYYCVRVYGSTLHYWGQGTILTVSS VL: DVVVTQSPDSLAVSLGQRATISCRASESVEYHGTSLMHWYQQKPGQPPKLLIYAASNVESGVPARFSGSGSGTDFSLNIHPVEEGDIAMYFCQQSRKVPWTFGGGTKLEIK | – | – | – | 5930 | 968 | – | – | –
3 | mouse 5H7 (antibody, V domains shown, mouse hybridoma mAb; also called 5H7 (hybridoma)) VH: EVKLVESGGGLVQPGDSLRLSCATSGFTFTDFYMSWVRQPPGRALEWLGFIRNKANGYTTEYSASVKGRFTISRDNSQSILYLQMNTLRAGDSATYYCVRVYGSTLHYWGQGTILTVSS VL: DVVVTQSPDSLAVSLGQRATISCRASESVEYHGTSLMHWYQQKPGQPPKLLIYAASNVESGVPARFSGSGSGTDFSLNIHPVEEGDVSMFFCQQSRKVPWTFGGGTKLEIK | – | – | – | 5560 | 1010 | – | – | –
4 | Humanized 11G2 153/156 (antibody, human IgG1, V domains shown, also called h11G2 VH (XC156)/VL (XC153)) VH: EVQLVESGGGLVQPGGSLRLSCATSGFTFTDFYMSWVRQAPGKGLEWVGFIRNKANGYTTEYSASVKGRFTISRDNAKNSLYLQMNSLRAEDTAVYYCVRVYGSTLHYWGQGTLVTVSS VL: DIQMTQSPSSLSASVGDRVTITCRASESVEYHGTSLMHWYQQKPGKAPKLLIYAASNVESGVPSRFSGSGSGTDFTLTISSLQPEDFATYFCQQSRKVPWTFGQGTKVEIK | 568 | 8.88 | 7.06 | – | – | – | 3.23 | 28.1
5 | Humanized 11G2 153/155 (antibody, human IgG1, V domains shown, also called h11G2 VH (XC155)/VL (XC153)) VH: EVQLVESGGGLVQPGGSLRLSCAASGFTFTDFYMSWVRQAPGKGLEWVGFIRNKANGYTTEYSASVKGRFTISRDNAKNSLYLQMNSLRAEDTAVYYCARVYGSTLHYWGQGTLVTVSS VL: DIQMTQSPSSLSASVGDRVTITCRASESVEYHGTSLMHWYQQKPGKAPKLLIYAASNVESGVPSRFSGSGSGTDFTLTISSLQPEDFATYFCQQSRKVPWTFGQGTKVEIK | 463 | 7.79 | 7.03 | – | – | – | 4.82 | 20.7

Continued, values first:

Row | ADCC Activity Average EC50, Human B Cells [1] [pM] | EC50 [2] [pM] | EC50 [3] [pM] | Ca2+ flux IC50 [4] [pM] | EC50 [5] [pM] | ADCC Activity Average EC50, Human Tfh Cells [1] [pM] | EC50 [6] [pM] | ADCC Activity Average EC50, NHP B Cells [7] [pM] | Binder
6 | 1110 | 152 | 1960 | – | – | – | – | – | Humanized 41A10 142/148 (antibody, human IgG1, V domains shown, also called h41A10 VH (XC148)/VL (XC142)) VH: EVQLVESGGGLVQPGGSLRLSCAASGFTFRSYGMSWVRQAPGKGLEWVATISSGGTYTFYPDILKGRFTISRDNAKNSLYLQMNSLRAEDTAVYYCARRGEDYRGALEHWGQGTLVTVSS VL: DIQMTQSPSSLSASVGDRVTITCSASSSVNYIHWYQQKPGKAPKRLIYETSRLASGVPSRFSGSGSGTDYTLTISSLQPEDFATYYCQQWSSNPLTFGQGTKVEIK
7 | 4.39 | 8.09 | – | – | – | 0.07 | 45.6 | – | Afucosyl Chimeric 11G2 (antibody, human IgG1, kappa, V domains shown, afucosylated Fc glycan (Asn297), made in Potelligent CHOK1SV cells) VH: EVKLVESGGGLVQPGGSLRLSCATSGFTFTDFYMSWVRQPPGRALEWLGFIRNKANGYTTEYSASVKGRFTISRDNSQSILYLQMNTLRAGDSATYYCVRVYGSTLHYWGQGTILTVSS VL: DVVVTQSPDSLAVSLGQRATISCRASESVEYHGTSLMHWYQQKPGQPPKLLIYAASNVESGVPARFSGSGSGTDFSLNIHPVEEGDIAMYFCQQSRKVPWTFGGGTKLEIKR
8 | – | – | – | 14700 | 805 | – | – | – | mouse 41A10 (antibody, V domains shown, mouse hybridoma mAb; also called 41A10 (hybridoma)) VH: EVQLVESGGDLVKPGGSLKLSCAASGFTFRSYGMSWVRQTPDKRLEWVATISSGGTYTFYPDILKGRITISRDNAKNTLYLQMSNLKSEDTAMYYCARRGEDYRGALEHWGQGTSVTVSS VL: QIVLTQSPAVMSASPGEKVTMTCSASSSVNYIHWYQQKSGTSPKRWIYETSRLASGVPVRFSGSGSGTSYSLTISTMEAEDAATYYCQQWSSNPLTFGAGTKLELK
9 | 54.5 | – | – | – | – | – | – | – | Afucosyl Chimeric 41A10 (antibody, human IgG1, kappa, V domains shown, afucosylated Fc glycan (Asn297)) VH: EVQLVESGGDLVKPGGSLKLSCAASGFTFRSYGMSWVRQTPDKRLEWVATISSGGTYTFYPDILKGRITISRDNAKNTLYLQMSNLKSEDTAMYYCARRGEDYRGALEHWGQGTSVTVSS VL: QIVLTQSPAVMSASPGEKVTMTCSASSSVNYIHWYQQKSGTSPKRWIYETSRLASGVPVRFSGSGSGTSYSLTISTMEAEDAATYYCQQWSSNPLTFGAGTKLELKR
10 | 377 | 13.1 | 10.1 | – | – | – | 3.33 | 43.6 | Humanized 11G2 151/152 (antibody, human IgG1, V domains shown, also called h11G2 VH (XC152)/VL (XC151)) VH: EVQLVESGGGLVKPGGSLRLSCAASGFTFTDFYMSWVRQAPGKGLEWLGFIRNKANGYTTEYSAPVKGRFTISRDDSKNTLYLQMNSLKTEDTAVYYCVRVYGSTLHYWGQGTLVTVSS VL: DIQMTQSPSSLSASVGDRVTITCRASESVEYHGTSLMHWYQQKPGKAPKLLIYAASNVESGVPSRFSGSGSGTDFTLTISSLQPEDFATYYCQQSRKVPWTFGQGTKVEIK
11 | 517 | 19.1 | 8.65 | – | – | – | 7.24 | 54 | Humanized 11G2 154/157 (antibody, human IgG1, V domains shown, also called h11G2 VH (XC157)/VL (XC154)) VH: EVQLVESGGGLVQPGGSLRLSCATSGFTFTDFYMSWVRQAPGKGLEWVGFIRNKANGYTTEYSASVKGRFTISRDNAKSSLYLQMNSLRAEDTAVYYCVRVYGSTLHYWGQGTLVTVSS VL: DIQMTQSPSSLSASVGDRVTITCRASESVEYHGTSLMHWYQQKPGKAPKLLIYAASNVESGVPSRFSGSGSGTDFTLTISSLQPEDFATYYCQQSRKVPWTFGQGTKVEIK
